Measured values published in publication PMC4318144 (Genes & Development, 2015).

Target: the molecule itself
Assay: cryo-EM structure

B1: Dark protein, full-length (residues 1–1440) (natural protein, D. melanogaster, UniProt Q7KLI1 1-1440, looked up)
chain: MDFETGEHQYQYKDILSVFEDAFVDNFDCKDVQDMPKSILSKEEIDHIIMSKDAVSGTLRLFWTLLSKQEEMVQKFVEEVLRINYKFLMSPIKTEQRQPSMMTRMYIEQRDRLYNDNQVFAKYNVSRLQPYLKLRQALLELRPAKNVLIDGVLGSGKTWVALDVCLSYKVQCKMDFKIFWLNLKNCNSPETVLEMLQKLLYQIDPNWTSRSDHSSNIKLRIHSIQAELRRLLKSKPYENCLLVLLNVQNAKAWNAFNLSCKILLTTRFKQVTDFLSAATTTHISLDHHSMTLTPDEVKSLLLKYLDCRPQDLPREVLTTNPRRLSIIAESIRDGLATWDNWKHVNCDKLTTIIESSLNVLEPAEYRKMFDRLSVFPPSAHIPTILLSLIWFDVIKSDVMVVVNKLHKYSLVEKQPKESTISIPSIYLELKVKLENEYALHRSIVDHYNIPKTFDSDDLIPPYLDQYFYSHIGHHLKNIEHPERMTLFRMVFLDFRFLEQKIRHDSTAWNASGSILNTLQQLKFYKPYICDNDPKYERLVNAILDFLPKIEENLICSKYTDLLRIALMAEDEAIFEEAHKQVQRFDDRVWFTNHGRFHQHRQIINLGDNEGRHAVYLHNDFCLIALASGQILLTDVSLEGEDTYLLRDESDSSDILRMAVFNQQKHLITLHCNGSVKLWSLWPDCPGRRHSGGSKQQLVNSVVKRFIGSYANLKIVAFYLNEDAGLPEANIQLHVAFINGDVSILNWDEQDQEFKLSHVPVLKTMQSGIRCFVQVLKRYYVVCTSNCTLTVWDLTNGSSNTLELHVFNVENDTPLALDVFDERSKTATVLLIFKYSVWRLNFLPGLSVSLQSEAVQLPEGSFITCGKRSTDGRYLLLGTSEGLIVYDLKISDPVLRSNVSEHIECVDIYELFDPVYKYIVLCGAKGKQVVHVHTLRSVSGSNSHQNREIAWVHSADEISVMTKACLEPNVYLRSLMDMTRERTQLLAVDSKERIHLIKPAISRISEWSTITPTHAASNCKINAISAFNDEQIFVGYVDGVIIDVIHDTALPQQFIEEPIDYLKQVSPNILVASAHSAQKTVIFQLEKIDPLQPNDQWPLMMDVSTKYASLQEGQYIILFSDHGVCHLDIANPSAFVKPKDSEEYIVGFDLKNSLLFLAYENNIIDVFRLIFSCNQLRYEQICEEEIAQKAKISYLVATDDGTMLAMGFENGTLELFAVENRKVQLIYSIEEVHEHCIRQLLFSPCKLLLISCAEQLCFWNVTHMRNNQLEREQKRRRSRRHKQHSVTQEDAVDAAPIAADIDVDVTFVADEFHPVNRGTAELWRNKRGNAIRPELLACVKFVGNEARQFFTDAHFSHFYAIDDEGVYYHLQLLELSRLQPPPDPVTLDIANQYEDLKNLRILDSPLMQDSDSEGADVVGNLVLEKNGGVARATPILEEASS
stoichiometry N: 16
